Results reported in patent publication US20220380436A1 (BOARD OF TRUSTEES OF THE UNIVERSITY OF ILLINOIS, published 2022).

Target: T1, human PDGFRβ isoform 1, myc-tagged, expressed on Expi293F cells (human, UniProt P09619 33-1106)
T1 construct: not shown: N-terminal myc-tag and linker
Assay: flow cytometry, gH/gL/gO-sfGFP medium on Expi293F cells expressing PDGFRβ (negative control)

T1 sequence (P09619 33-1106): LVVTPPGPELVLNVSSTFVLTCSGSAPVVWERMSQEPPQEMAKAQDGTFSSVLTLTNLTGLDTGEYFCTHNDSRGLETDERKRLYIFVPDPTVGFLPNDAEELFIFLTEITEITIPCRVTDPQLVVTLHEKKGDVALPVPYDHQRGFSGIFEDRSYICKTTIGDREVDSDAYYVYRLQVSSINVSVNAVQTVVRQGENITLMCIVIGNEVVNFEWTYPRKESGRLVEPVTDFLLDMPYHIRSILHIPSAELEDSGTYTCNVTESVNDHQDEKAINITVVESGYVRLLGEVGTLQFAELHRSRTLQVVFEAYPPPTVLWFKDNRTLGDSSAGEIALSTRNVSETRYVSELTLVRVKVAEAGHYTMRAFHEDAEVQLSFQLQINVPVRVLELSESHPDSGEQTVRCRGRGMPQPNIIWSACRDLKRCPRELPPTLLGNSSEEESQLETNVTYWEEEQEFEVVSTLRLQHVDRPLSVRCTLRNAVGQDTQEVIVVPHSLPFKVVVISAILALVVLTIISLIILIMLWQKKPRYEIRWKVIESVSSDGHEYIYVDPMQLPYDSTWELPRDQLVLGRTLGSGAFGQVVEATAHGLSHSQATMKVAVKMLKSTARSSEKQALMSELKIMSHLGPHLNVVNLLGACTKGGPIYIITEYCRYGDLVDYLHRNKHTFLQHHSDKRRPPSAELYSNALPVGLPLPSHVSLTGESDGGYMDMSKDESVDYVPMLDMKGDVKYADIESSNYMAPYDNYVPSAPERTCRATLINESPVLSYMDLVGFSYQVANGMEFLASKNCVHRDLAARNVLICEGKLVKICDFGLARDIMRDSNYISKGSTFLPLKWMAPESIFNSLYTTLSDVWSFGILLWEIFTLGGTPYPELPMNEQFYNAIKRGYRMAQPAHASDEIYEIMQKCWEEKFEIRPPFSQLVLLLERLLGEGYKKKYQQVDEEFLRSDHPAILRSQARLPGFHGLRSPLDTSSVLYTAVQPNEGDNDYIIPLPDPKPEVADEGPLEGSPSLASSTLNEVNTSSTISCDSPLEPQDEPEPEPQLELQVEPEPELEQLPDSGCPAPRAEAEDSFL

B1: soluble HCMV glycoprotein trimer gH/gL/gO-sfGFP from strain TB40/E (other)
chain 1: […]
chain 2: VAVSVAPTAAEKVPAECPELTRRCLLGEVFQGDKYESWLRPLVNVTGRNGPLSQLIRYRPVTPEAANSVLLDDAFLDTLALLYNNPDQLRALLTLLSSDTAPRWMTVMRGYSECGDGSPAVYTCVDDLCRGYDLTRLSYGRSIFTEHVLGFELVPPSLFNVVVAIRNEATRTNRAVRLPVSTAAAPEGITLFYGLYNAVKEFCLRHQLDPPLLRHLDKYYAGLPPELKQTRVNLPAHSRYGPQAVDAR
chain 3: […]
notes: also called TB40/E trimer; CMV trimer; not shown: C-terminal FLAG tag; C-terminal superfolder GFP (Pedelacq et al. 2006)
binding result: no binding
